According to paper PMC314469, “Protein Interaction Networks by Proteome Peptide Scanning” (PLoS Biology, 2004):

T1: amphyphisin SH3 (AMPH_HUMAN), P49418
T1 chain: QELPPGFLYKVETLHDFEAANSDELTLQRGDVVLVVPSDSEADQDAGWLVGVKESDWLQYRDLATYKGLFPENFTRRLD


Assays:
[1] = target: endophilin SH3 (SH3G2_HUMAN), Q99962; experiment: SPOT array
[2] = target: T1, amphyphisin SH3 (AMPH_HUMAN), P49418; experiment: SPOT array

Row | normalised SPOT signal, Boehringer light units (BLU); mean over the file's lines of this peptide [1] | normalised SPOT signal, Boehringer light units (BLU); mean over the file's lines of this peptide [2] | Binder
1 | 50.1 | 13.4 | RSGNLKRPKIGKRF [Q9Y6X4 343-356]
2 | 831 | 133 | RSRVPVRPPQQYSD [Q92560 382-396]
3 | 187 | 170 | RSRSLHRPAKTSEL [O95996 1839-1852]
4 | 1480 | 11900 | AATQPLRPPRGTAA [P53814 641-654]
5 | 325 | 58.2 | RRLQPRRPGYPPRP [Q96EZ6 93-106]
6 | 31.7 | 9.3 | RRLALRRPEILVQP [Q96M62 296-309]
7 | 12.5 | 33.7 | RTKRFKRPQFSPTG [Q96CC9 51-64]
8 | 3120 | 6770 | RRQRPTRPPRQDKP [Q9Y520 1420-1434]
9 | 9570 | 1450 | RRKAPPRPPRPAAP [O60486 5-18]
10 | 3690 | 154 | RSRSPGRPPKSARR [Q14739 82-96]
11 | 9450 | 21500 | RRRSPPRPPSRPAR [Q96JH1 1030-1044]
12 | 117 | 15.3 | AVQFLRRPKTITRV [O95473 15-28]
13 | 7420 | 4120 | RRQPPVRPGRVHLP [P31152 530-543]
14 | 11.2 | 41.2 | RRGSPRRPRLSSSS [P46092 337-350]
15 | 587 | 283 | RSQTPERPAKKIRE [Q9Y2N3 421-434]
16 | 9710 | 12500 | RSEAPRRPSRKGLR [Q14839 1380-1393]

The remaining lines, values behind:

Row | Binder | normalised SPOT signal, Boehringer light units (BLU); mean over the file's lines of this peptide [1] | normalised SPOT signal, Boehringer light units (BLU); mean over the file's lines of this peptide [2]
17 | RTEGFWRPLRGVNV [Q9NYZ2 96-109] | 107 | 952
18 | RSWWPQRPGRWLSR [Q9NRK9 487-500] | 558 | 3180
19 | RRQPPARPPGPSTD [Q9BQA8 78-92] | 9600 | 1490
20 | AVPPPSRPQRLSSL [Q9NU00 50-63] | 7470 | 15600
21 | RRSPPRRPAWTLGI [Q9HDB5 8-21] | 1580 | 88.8
22 | RSKSPRRPSPTARG [Q9BZW7 5-18] | 121 | 41.9
23 | RVEELSRPKRFYLE [Q9P2T0 193-206] | 210 | 225
24 | RTLGLRRPVHSSSI [Q9P1Y6 400-413] | 49.2 | 20.6
25 | AVMALRRPGERQYR [Q9P0P1 47-60] | 206 | 38.9
26 | RSSGPERPPHGLPL [Q9NPP7 72-86] | 752 | 39.9
27 | RRPALHRPIKVNLL [Q9NWI3 259-272] | 109 | 111
28 | RRNVPMKPPDEAKV [Q9H5Q5 226-240] | 147 | 2290
29 | RRIHIKRPDDRAHL [Q9H3F6 298-311] | 70.2 | 20.8
30 | RTPAPRRPLQRRRP [Q9GZW5 220-233] | 12000 | 789
31 | RTPTPDRPPRSAWG [Q9H0S3 22-35] | 395 | 2030
